Consider 13 substances from patent EP0910659B1, “ANTIBODIES AGAINST A COMPLEX OF CD4 AND A CHEMOKINE RECEPTOR DOMAIN, AND THEIR USE AGAINST HIV INFECTIONS” (United Biomedical, Inc., priority 1996, dated 1997).

Where only a bound is given, the exact number is not on record here.

The target in one assay is T1, "B4-rsCD4" interaction (Homo sapiens, UniProt P01730).
T1 construct: purchased American Bio-Technologies, Inc. Cambridge, MA
Nature of the assay: ELISA inhibition assay with CD4 peptides (B4). Type of assay: binding. The following applies: B4 10 µg/mL, negative = enhancement; for % inhibition of "B4-rsCD4" interaction, Conc 3: peptide 16.7 µg/mL; for % inhibition of "B4-rsCD4" interaction, Conc 2: peptide 167 µg/mL; for % inhibition of "B4-rsCD4" interaction, Conc 1: peptide 1.67 mg/mL. Here is the method: (§1) ELISA Inhibition Assays. […] The preincubated sample and peptide mixture was used directly in the standard rsCD4 ELISA procedure described herein above. Percent inhibition was calculated relative to the appropriate identically diluted monoclonal antibody which was preincubated in the absence of peptide. rsCD4-induced inhibition of antibody binding in the rsCD4 ELISA was similarly measured by preincubating diluted samples, at an endpoint rsCD4 binding dilution, with the competing rsCD4 at the indicated concentration.
(§2) The signal generated at endpoint concentration (e.g. 10 µg/mL for B4 and 20 µg/mL for M2) in an rsCD4 ELISA was employed as a positive control for the competitive peptide binding studies.
Table 5 depicts per cent inhibition results obtained in the rsCD4 ELISA where designed CD4 peptides were serially diluted and individually incubated with 0.1 mL of B4 at 10 µg/mL prior to the binding of B4 to the solid phase-bound rsCD4. Peptides were employed for competitive inhibition at concentrations of 1.67 mg/mL, 167 µg/mL and 16.7 µg/mL (conc 1, conc 2, and conc 3, respectively). […] Enhancement is expressed by negative values for inhibition.

The next assay deals with T2, "M2-rsCD4" interaction (Homo sapiens, UniProt P01730).
T2 construct: purchased American Bio-Technologies, Inc. Cambridge, MA
In words: ELISA inhibition assay with CD4 peptides (M2). Type of assay: binding. The conditions noted are these: M2 20 µg/mL, negative = enhancement; for % inhibition of "M2-rsCD4" interaction, Conc 3: peptide 16.7 µg/mL; for % inhibition of "M2-rsCD4" interaction, Conc 2: peptide 167 µg/mL; for % inhibition of "M2-rsCD4" interaction, Conc 1: peptide 1.67 mg/mL. As for the experimental part:
as §1, §2
Table 6 depicts the per cent inhibition results obtained in the rsCD4 ELISA where designed CD4 peptides were serially diluted as in Table 5 and were individually incubated with 0.1 mL of M2 at 20 µg/mL prior to binding M2 to the solid phase-bound rsCD4.

In assay [1] the target is CD4 on the surface of CD4-expressing cells (host cell antigen complex comprising CD4) (human). Nature of the assay: HPB-ALL cells pre-incubated with PBS, then gp120-FITC 1:200.
Assay [2] concerns the target monoclonal antibody B4. Nature of the assay: competition rsCD4 ELISA, B4 10 µg/mL, peptide 16.7 µg/mL; negative value = enhancement.
The target of assay [3] is monoclonal antibody B4. Nature of the assay: competition rsCD4 ELISA, B4 10 µg/mL, peptide 1.67 mg/mL; negative value = enhancement.
For assay [4], the target named is monoclonal antibody B4. In words: competition rsCD4 ELISA, B4 10 µg/mL, peptide 167 µg/mL; negative value = enhancement.
The target of assay [5] is monoclonal antibody B4. In words: competition rsCD4 ELISA, B4 10 µg/mL, peptide 16.7 µg/mL.
In assay [6] the target is monoclonal antibody B4. Nature of the assay: competition rsCD4 ELISA, B4 10 µg/mL, peptide 167 µg/mL.
Assay [7] addresses monoclonal antibody B4. Nature of the assay: competition rsCD4 ELISA, B4 10 µg/mL, peptide 1.67 mg/mL.
Assay [8] deals with gp120 of HIV-1 primary isolate 23135 (clade B). In words: cell-based or functional assay.
Assay [9] concerns the target gp120 of HIV-1 primary isolate BR014 (clade B). Nature of the assay: cell-based or functional assay.
For assay [10], the target named is gp120 of HIV-1 primary field isolate DH-12 (clade B). In words: cell-based or functional assay.
Assay [11] concerns the target monoclonal antibody B4. Nature of the assay: competition ELISA: soluble rsCD4 25 µg/mL preincubated with B4 2 µg/mL; solid-phase rsCD4.
Assay [12] has as its target monoclonal antibody B4. Nature of the assay: competition ELISA: soluble rsCD4 0.2 µg/mL preincubated with B4 2 µg/mL; solid-phase rsCD4.
In assay [13] the target is monoclonal antibody B4. Nature of the assay: competition ELISA: soluble rsCD4 5 µg/mL preincubated with B4 2 µg/mL; solid-phase rsCD4.
The target in assay [14] is monoclonal antibody B4. Nature of the assay: soluble rsCD4 5 µg/mL preincubated with biotinylated B4 0.71 µg/mL, then HPB-ALL cells; no inhibition.
Assay [15] addresses monoclonal antibody B4. In words: competition ELISA: soluble rsCD4 1.0 µg/mL preincubated with B4 2 µg/mL; solid-phase rsCD4.
Assay [16] deals with monoclonal antibody B4. Nature of the assay: ELISA inhibition: soluble rsCD4 preincubated with B4 2 µg/mL; wells coated with rsCD4.
The target in assay [17] is monoclonal antibody B4. Nature of the assay: soluble rsCD4 50 µg/mL preincubated with biotinylated B4 0.71 µg/mL, then HPB-ALL cells; no inhibition.
In assay [18] the target is monoclonal antibody B4. In words: competition ELISA: soluble rsCD4 0.04 µg/mL preincubated with B4 2 µg/mL; solid-phase rsCD4.
Assay [19] deals with monoclonal antibody B4. In words: soluble rsCD4 0.005 µg/mL preincubated with biotinylated B4 0.71 µg/mL, then HPB-ALL cells; no inhibition.
The target in assay [20] is monoclonal antibody B4. In words: competition ELISA: soluble rsCD4 0.008 µg/mL preincubated with B4 2 µg/mL; solid-phase rsCD4.
Assay [21] deals with monoclonal antibody B4. Nature of the assay: ELISA inhibition: soluble rsCD4 preincubated with B4 0.1 µg/mL; wells coated with rsCD4/CC-CKR5-D3 (p2047a).
Assay [22] has as its target monoclonal antibody B4. In words: soluble rsCD4 0.05 µg/mL preincubated with biotinylated B4 0.71 µg/mL, then HPB-ALL cells; no inhibition.
Assay [23] addresses monoclonal antibody B4. In words: competition ELISA: soluble rsCD4 preincubated with B4 2 µg/mL; solid-phase rsCD4.
Assay [24] deals with monoclonal antibody B4. Nature of the assay: soluble rsCD4 0.5 µg/mL preincubated with biotinylated B4 0.71 µg/mL, then HPB-ALL cells; no inhibition.

For CD4 (1-20) [1816d], at "B4-rsCD4" interaction, the “% inhibition of "B4-rsCD4" interaction, Conc 3” value is listed as 29%; the “% inhibition of "B4-rsCD4" interaction, Conc 2” value is 53%; the “% inhibition of "B4-rsCD4" interaction, Conc 1” value is listed as 64%. At "M2-rsCD4" interaction, the “% inhibition of "M2-rsCD4" interaction, Conc 3” value stood at 17%; the “% inhibition of "M2-rsCD4" interaction, Conc 2” value came to 60%; the “% inhibition of "M2-rsCD4" interaction, Conc 1” value came out at 74%.

In the case of CD4 (36-47) [1624a], on "B4-rsCD4" interaction, the “% inhibition of "B4-rsCD4" interaction, Conc 3” value is -108%; the “% inhibition of "B4-rsCD4" interaction, Conc 2” value is recorded as -207%; the “% inhibition of "B4-rsCD4" interaction, Conc 1” value is -215%. Moreover, on "M2-rsCD4" interaction, the “% inhibition of "M2-rsCD4" interaction, Conc 3” value is -141%; the “% inhibition of "M2-rsCD4" interaction, Conc 2” value is on record as -251%; the “% inhibition of "M2-rsCD4" interaction, Conc 1” value is given as -261%.

For CD4 (154-165) [1768a], on "B4-rsCD4" interaction, the “% inhibition of "B4-rsCD4" interaction, Conc 3” value is 6%; the “% inhibition of "B4-rsCD4" interaction, Conc 2” value came to 37%; the “% inhibition of "B4-rsCD4" interaction, Conc 1” value is recorded as 82%. On "M2-rsCD4" interaction, the “% inhibition of "M2-rsCD4" interaction, Conc 3” value worked out at 19%; the “% inhibition of "M2-rsCD4" interaction, Conc 2” value came out at 36%; the “% inhibition of "M2-rsCD4" interaction, Conc 1” value turned out to be 86%.

As to CD4 (297-351*) [1868a], on "B4-rsCD4" interaction, the “% inhibition of "B4-rsCD4" interaction, Conc 3” value was 19%; the “% inhibition of "B4-rsCD4" interaction, Conc 2” value was determined as 30%; the “% inhibition of "B4-rsCD4" interaction, Conc 1” value amounted to 38%. Further, on "M2-rsCD4" interaction, the “% inhibition of "M2-rsCD4" interaction, Conc 3” value is on record as 17%; the “% inhibition of "M2-rsCD4" interaction, Conc 2” value came out at 43%; the “% inhibition of "M2-rsCD4" interaction, Conc 1” value was 56%.

Substance HIV-1 gp120 (ligand) came in with a % of cells stained by gp120-FITC in [1] of over 90%.

With “p1624a (C)CD4(36-47)(C), cyclic (peptide)”, the % inhibition of B4-rsCD4 interaction with monoclonal antibody B4 [2] was -108%; with monoclonal antibody B4 [3] it was -215%; with monoclonal antibody B4 [4], -207%.

For the substance p1768a CD4(154-165) (peptide), the values for the % inhibition of B4-rsCD4 interaction with monoclonal antibody B4 [5], in the assay with monoclonal antibody B4 [6] and with monoclonal antibody B4 [7] were 6%, 37% and 82%, respectively.

For p1768b HBVTh-GG-CD4(154-165) (peptide), the % inhibition of B4-rsCD4 interaction in the assay with monoclonal antibody B4 [5] is 11%; in the assay with monoclonal antibody B4 [6] it was 44%; in the assay with monoclonal antibody B4 [7], 76%.

For the substance p1813b HBVTh-GG-CD4(79-88) (peptide), the % inhibition of B4-rsCD4 interaction turned out to be 32% in the assay with monoclonal antibody B4 [5], 69% with monoclonal antibody B4 [6] and 93% with monoclonal antibody B4 [7].

Regarding p1816d CD4(1-20) (peptide), the results for the % inhibition of B4-rsCD4 interaction in the assay with monoclonal antibody B4 [5], with monoclonal antibody B4 [6] and in the assay with monoclonal antibody B4 [7] were 29%, 53% and 64%, respectively.

In the case of p1868a CD4(297-351), cyclic (peptide), the % inhibition of B4-rsCD4 interaction in the assay with monoclonal antibody B4 [5] is 19%; with monoclonal antibody B4 [6], 30%; with monoclonal antibody B4 [7] it was 38%.

Turning to “recombinant human monoclonal antibody IgG1 b12”, the 50% Inhbt., HIV-1 primary isolate 23135, MT-2 Microplaque Neutralization Assay in assay [8] came out at 12.8 µg/mL. The substance also came in with a 50% Inhbt., HIV-1 primary isolate BR014, MT-2 Microplaque Neutralization Assay in [9] of over 50 µg/mL. Besides, the HIV-1 DH-12 (chimp PBL-grown), PBMC Infection Reduction Assay in assay [10] is 1.38 logs killed.

Take “recombinant soluble CD4 (rsCD4) (receptor)”: the % Inhibition in the assay with monoclonal antibody B4 [11] was 91.9%; with monoclonal antibody B4 [12], 6.7%; with monoclonal antibody B4 [13], 91%; with monoclonal antibody B4 [15], 49.9%; in the assay with monoclonal antibody B4 [18], 6.1%; in the assay with monoclonal antibody B4 [20] it was -4.7%. Also, the A492 nm in the assay with monoclonal antibody B4 [11] is 0.055 A492; in the assay with monoclonal antibody B4 [12], 0.633 A492; with monoclonal antibody B4 [13], 0.061 A492; in the assay with monoclonal antibody B4 [15], 0.34 A492; with monoclonal antibody B4 [18], 0.637 A492; with monoclonal antibody B4 [20] it was 0.711 A492. Also, the % Positive cells (biotinylated B4 staining of HPB-ALL) with monoclonal antibody B4 [14], in the assay with monoclonal antibody B4 [17], with monoclonal antibody B4 [19], in the assay with monoclonal antibody B4 [22] and in the assay with monoclonal antibody B4 [24] was over 95% in each case. Moreover, the staining (biotinylated B4 on HPB-ALL) with monoclonal antibody B4 [14], in the assay with monoclonal antibody B4 [17], with monoclonal antibody B4 [19], in the assay with monoclonal antibody B4 [22] and with monoclonal antibody B4 [24] was 3 + throughout. Also, the concentration for half-maximal inhibition (IC50) came out at 0.72 µg/mL in the assay with monoclonal antibody B4 [16], 0.047 µg/mL with monoclonal antibody B4 [21] and 1 µg/mL with monoclonal antibody B4 [23].
